The target of this assay is T1, Notch1 (Mus musculus, UniProt Q01705).
T1 construct: expressed in transfected cells; host or cells: human kidney 293T cells, transient transfection (LT-1 liposomes)
The experiment in a line: Notch1 processing assay in human kidney 293T cells. The assay is classed as cell-based. Conditions: 293T cells co-transfected with Notch1, vs cells solely expressing Notch1; anti-Myc immunoblot. How it is done: To monitor the effects of MAGP-2 on the processing and S3 cleavage of Notch1, human kidney 293T cells were transiently transfected in 6-well plates with LT-1 liposomes containing 0.5 μg/well of Notch1 (pCS2+mN1FL6MT), 0.5 μg/well Jagged-1 (pCS2+Jag1-6MT), or 1.5 μg/well of MAGP-2 (pcDNA3.1-MAGP-2/Myc-His) in all combinations. Forty-eight h post-transfection, the cells were washed with ice-cold PBS, lysed immediately in Buffer H/1% Triton X-100 [500 μl/well; (Schiemann et al, 2002)], and incubated on ice for 30 min. Afterward, insoluble material was removed by microcentrifugation and 100 μl of the resulting clarified extract was fractionated through 6% SDS-PAGE gels. The fractionated proteins were transferred electrophoretically to nitrocellulose and probed with anti-Myc 9E10 monoclonal antibodies (Covance, Princeton, N.J.) to visual Notch1 cleavage species.
Activation of Notch1 signaling involves three proteolytic processing events, termed S1, S2, and S3, that produce three distinct Notch1 fragments, termed TMIC, NEXT, and NICD, respectively (Mumm et al, 2000). […] The inventors tested this possibility by transiently transfecting human 293T cells with cDNAs encoding Myc-tagged versions of Notch1, Jagged-1, and MAGP-2 in all combinations, and subsequently monitored changes in NICD production and accumulation by immunoblot analyses using anti-Myc monoclonal antibodies. […]

T1 sequence (Q01705 19-2531): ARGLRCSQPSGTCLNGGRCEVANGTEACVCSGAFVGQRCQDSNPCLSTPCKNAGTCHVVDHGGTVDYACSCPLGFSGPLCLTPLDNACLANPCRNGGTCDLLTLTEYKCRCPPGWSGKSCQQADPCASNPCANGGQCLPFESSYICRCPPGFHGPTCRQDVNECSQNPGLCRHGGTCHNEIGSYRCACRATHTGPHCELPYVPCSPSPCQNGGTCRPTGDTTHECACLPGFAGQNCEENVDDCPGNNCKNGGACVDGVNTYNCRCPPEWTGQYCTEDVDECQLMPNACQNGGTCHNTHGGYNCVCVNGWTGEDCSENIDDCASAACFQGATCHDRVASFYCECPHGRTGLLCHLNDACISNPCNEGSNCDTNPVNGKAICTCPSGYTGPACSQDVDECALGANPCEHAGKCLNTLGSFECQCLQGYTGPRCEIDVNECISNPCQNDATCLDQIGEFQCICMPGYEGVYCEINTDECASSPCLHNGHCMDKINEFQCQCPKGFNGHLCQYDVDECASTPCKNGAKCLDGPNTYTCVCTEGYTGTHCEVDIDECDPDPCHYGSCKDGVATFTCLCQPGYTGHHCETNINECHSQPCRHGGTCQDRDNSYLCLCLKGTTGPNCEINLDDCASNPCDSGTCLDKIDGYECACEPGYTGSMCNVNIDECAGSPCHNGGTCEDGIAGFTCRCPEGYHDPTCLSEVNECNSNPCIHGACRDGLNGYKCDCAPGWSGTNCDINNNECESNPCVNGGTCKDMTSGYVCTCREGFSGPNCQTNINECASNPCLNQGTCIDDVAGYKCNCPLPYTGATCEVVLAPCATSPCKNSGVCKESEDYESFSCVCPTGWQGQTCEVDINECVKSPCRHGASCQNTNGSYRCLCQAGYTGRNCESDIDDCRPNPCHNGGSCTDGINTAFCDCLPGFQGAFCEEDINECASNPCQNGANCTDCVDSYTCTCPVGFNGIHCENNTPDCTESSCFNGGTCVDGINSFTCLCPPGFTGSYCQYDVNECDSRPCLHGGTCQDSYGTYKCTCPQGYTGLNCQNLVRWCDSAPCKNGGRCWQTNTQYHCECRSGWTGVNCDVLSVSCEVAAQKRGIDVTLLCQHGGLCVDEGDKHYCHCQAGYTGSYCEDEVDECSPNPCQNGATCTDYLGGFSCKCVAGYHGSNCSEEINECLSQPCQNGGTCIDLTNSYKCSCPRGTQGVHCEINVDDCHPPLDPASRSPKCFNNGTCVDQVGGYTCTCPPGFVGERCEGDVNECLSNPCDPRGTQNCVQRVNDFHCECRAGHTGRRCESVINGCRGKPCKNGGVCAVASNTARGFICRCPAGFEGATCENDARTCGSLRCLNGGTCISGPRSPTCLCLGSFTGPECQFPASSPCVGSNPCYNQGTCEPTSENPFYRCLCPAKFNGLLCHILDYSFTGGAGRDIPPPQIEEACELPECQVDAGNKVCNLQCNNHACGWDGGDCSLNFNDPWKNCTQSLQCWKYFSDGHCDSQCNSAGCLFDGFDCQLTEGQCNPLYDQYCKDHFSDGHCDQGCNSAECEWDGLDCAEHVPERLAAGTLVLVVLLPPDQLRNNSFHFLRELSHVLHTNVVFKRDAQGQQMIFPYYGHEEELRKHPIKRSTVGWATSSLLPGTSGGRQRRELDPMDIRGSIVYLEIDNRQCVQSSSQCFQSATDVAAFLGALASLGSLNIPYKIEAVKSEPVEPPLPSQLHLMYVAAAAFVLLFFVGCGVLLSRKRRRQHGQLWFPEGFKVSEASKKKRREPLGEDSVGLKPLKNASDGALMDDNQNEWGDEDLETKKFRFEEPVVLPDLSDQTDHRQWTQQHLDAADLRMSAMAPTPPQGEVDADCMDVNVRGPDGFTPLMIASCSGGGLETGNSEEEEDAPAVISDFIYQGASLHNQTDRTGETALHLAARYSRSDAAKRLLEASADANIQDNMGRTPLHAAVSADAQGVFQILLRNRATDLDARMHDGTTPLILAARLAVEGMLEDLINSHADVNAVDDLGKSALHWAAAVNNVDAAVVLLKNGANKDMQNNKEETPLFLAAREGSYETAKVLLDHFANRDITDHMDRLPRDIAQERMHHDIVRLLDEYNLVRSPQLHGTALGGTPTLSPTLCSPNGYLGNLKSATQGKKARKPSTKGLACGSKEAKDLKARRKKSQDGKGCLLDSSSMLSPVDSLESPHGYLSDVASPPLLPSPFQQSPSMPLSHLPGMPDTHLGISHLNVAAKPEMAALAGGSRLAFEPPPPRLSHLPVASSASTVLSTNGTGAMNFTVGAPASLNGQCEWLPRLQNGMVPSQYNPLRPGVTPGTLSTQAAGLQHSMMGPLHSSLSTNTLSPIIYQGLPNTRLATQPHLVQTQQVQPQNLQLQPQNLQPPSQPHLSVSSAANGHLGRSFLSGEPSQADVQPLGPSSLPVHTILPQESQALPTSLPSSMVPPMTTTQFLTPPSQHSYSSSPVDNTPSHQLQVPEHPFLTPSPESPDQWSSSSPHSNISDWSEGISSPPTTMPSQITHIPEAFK

B1: Jagged-1: Notch1 ligand; Myc-tagged murine Jagged-1 cDNA transiently transfected (protein)
chain: QFELEILSMQNVNGELQNGNCCGGVRNPGDRKCTRDECDTYFKVCLKEYQSRVTAGGPCSFGSGSTPVIGGNTFNLKASRGNDRNRIVLPFSFAWPRSYTLLVEAWDSSNDTIQPDSIIEKASHSGMINPSRQWQTLKQNTGIAHFEYQIRVTCDDHYYGFGCNKFCRPRDDFFGHYACDQNGNKTCMEGWMGPDCNKAICRQGCSPKHGSCKLPGDCRCQYGWQGLYCDKCIPHPGCVHGTCNEPWQCLCETNWGGQLCDKDLNYCGTHQPCLNRGTCSNTGPDKYQCSCPEGYSGPNCEIAEHACLSDPCHNRGSCKETSSGFECECSPGWTGPTCSTNIDDCSPNNCSHGGTCQDLVNGFKCVCPPQWTGKTCQLDANECEAKPCVNARSCKNLIASYYCDCLPGWMGQNCDININDCLGQCQNDASCRDLVNGYRCICPPGYAGDHCERDIDECASNPCLNGGHCQNEINRFQCLCPTGFSGNLCQLDIDYCEPNPCQNGAQCYNRASDYFCKCPEDYEGKNCSHLKDHCRTTTCEVIDSCTVAMASNDTPEGVRYISSNVCGPHGKCKSQSGGKFTCDCNKGFTGTYCHENINDCESNPCKNGGTCIDGVNSYKCICSDGWEGAHCENNINDCSQNPCHYGGTCRDLVNDFYCDCKNGWKGKTCHSRDSQCDEATCNNGGTCYDEVDTFKCMCPGGWEGTTCNIARNSSCLPNPCHNGGTCVVNGDSFTCVCKEGWEGPICTQNTNDCSPHPCYNSGTCVDGDNWYRCECAPGFAGPDCRININECQSSPCAFGATCVDEINGYQCICPPGHSGAKCHEVSGRSCITMGRVILDGAKWDDDCNTCQCLNGRVACSKVWCGPRPCRLHKSHNECPSGQSCIPVLDDQCFVRPCTGVGECRSSSLQPVKTKCTSDSYYQDNCANITFTFNKEMMSPGLTTEHICSELRNLNILKNVSAEYSIYIACEPSLSANNEIHVAISAEDIRDDGNPVKEITDKIIDLVSKRDGNSSLIAAVAEVRVQRRPLKNRTDFLVPLLSSVLTVAWVCCLVTAFYWCVRKRRKPSSHTHSAPEDNTTNNVREQLNQIKNPIEKHGANTVPIKDYENKNSKMSKIRTHNSEVEEDDMDKHQQKVRFAKQPVYTLVDREEKAPSGTPTKHPNWTNKQDNRDLESAQSLNRMEYIV
modifications: left off: small tags and cut ends
notes: Notch1 ligand; Myc-tagged murine Jagged-1 cDNA transiently transfected
B1: the “Notch1 processing and production of NICD” value is on record as “significantly enhanced”.
